In the assay the target is Rhizobium radiobacter MDC 8606 N-carbamoyl-β-alanine amidohydrolase (Rhizobium radiobacter MDC 8606). Briefly: SEC; Superdex S200 16/60, 50 mM Tris-HCl pH 8.0, 150 mM NaCl; calibrated column; single major peak at 74.4 mL, apparent molecular weight 90 kDa.

By stoichiometry N is commonly meant a count of units in the complex or per binding partner.

Take “Rhizobium radiobacter MDC 8606 N-carbamoyl-β-alanine amidohydrolase (enzyme)”: the stoichiometry N came to 2.

These data come from article PMC10952681.
